Test results taken from the DeepSol protein solubility set.

Assay: soluble on expression in E. coli; label from the status in PepcDB or PDB records

Soluble on expression in E. coli, not soluble:
MQKFILSAFVVALVAADCALKCPDGYFSFKRAPSAKNSMTGLWCVKAILSDTLISPNQAKQVCEKDGSILTSFENLDERTKLATVLRDFLSAKKLDRGGMIVDGHRLKNCETDDRTVLNAEPCRNSSTGFTTDEKHTDNTFMWKSWADTEPGQSIFEKQIESCLQLAISQFKSRTELINDVFCNYVKHPQNEGAYDLWNYGAVCGRLPEWN, MGSDKIHHHHHHMGVMMKQKIKILTVIGLMTVGMSACHNTSKPSNTDSVFSLTGKKRQQIVKQVRQRYYFQQLSKTEQENYLTLYDSLAQFREIISLTPASKKSLIKTIDAFVMDNPEFYWITSADYRFEFSDQTVFVTFPIPEDAKNIYQDLQAIGNDIVANTPSKDRYEQVKYFYEVIIRDTDYNKKAFEAYQSGSQAQVASNQDIKSVFIDHLSVCNGYAQAFQFLCQKAGIPVAYIRGTGTSQQPQQSFAHAWNAVQINNTYYGVDVTWGDPVFDNHLSHQKQGTINYSFLCLPDYLMALSHQPSKDIAFNTKERFENVWTIPSCTDDSLLYSKRHQSYISTFDSDAILASLENQLLNRQEPLSLQFAHQDDYQQMVTDLTTNQTGYHNLFNQYWNNYTGFTYGLLPETLSISFASRN, MIGFAACECIIYNARSLKDKRAVLQRVMTRIRQKYNVSVAEIDHQDAWQRATIGLVAITSSRRATERELERALALIDSFPELERAATSFEWL, MRPGWIAADWGTSRLRVWAMGAEGVLAEARSDEGMGQIAVGGFEAALLRLIGLWLSDGPAVQVVICGMAGARQGWQEVPYRRLPCAPVDPQALVPVPSEDPRIAVRIVPGLAQAKPADVMRGEETQIAGALALLGSFDGVICLPGTHSKWAQVSAGEVVSFRSFLTGELFALLSERSVLRHGLAAEGWDDEAFLAAVSDGMSHPQKLGAKLFGLRAEALLQDLPPATARARLSGLLIGLELVGARSYWLGQPVVLVGEEALAARYGAALAAQGVQARLLPAAACTLGGLAAAVGQLTLASSGAGRKA, MRVVVSIGGSVLAPGLDADQVDAHADAINELTDAGCEVGAVVGGGGVARDYIGTARELGANEIELDDIGVDVTRLNARLLIAALGGDAAPSPAEDYEDAGEAMRRGDIAVMGGVVAGQTTDAVSAALAEYTDADLLLYATSVPGVFSADPNEDADAEHFTRMTAGELVDIIADIEMNAGSSAPVDLLAAKLIERSGVRTIVLDGTDPRRIVDAVRFGEHDGTDVIPDGTDNQMTYWADNQELEHHHHHH, MGSDKIHHHHHHAQRGKRAMNRIDREVQETVFIPKGTWMAGGTVSYSEHDEGNLNFLVLKNVEGKGYNFGVSPYVGYFFRNNISAGMRFAYHRDYLDLKNFELNLGEDFNISLDNLYYLEHKYEVSGFLRTYMPIGRSKIFGLFNEARLTYGYGTGKNSTGTGATYDGSYQTAQNLQIGIAPGMTAFITDWSAVEVSVGVMGFDFKWIDQKTNQIEEGHQRVSSGNFKINLFSINIGMTFYL, MGSDKIHHHHHHMKTKHILFGIFISSAVTSCNSIKGSGNVVTSIRPVQEFSGIISSGSFNMYLTQSAVQEVKIIADDNVLQYIETNVRDGILTVTFKDKVHIKNSTRLDIYVSGPVIEKINLEGSGNIQTTNRLHSNNLVLVLNGSGKMVAEDACETAIVQLNGSGNITLTGKAKNQTASVSGSGNVNASGFTTENTTASLSGSGSIGLYATESLHASLSGSGSIRYSGNPASVKKEVSGSGMVESR, MSSAPNDDCEIDKGTPSTASLFTTLMLSQPSSSTAVLQCTYCGSSCTSSQLQTCLFCGTVAYCSKEHQQLDWLTHKMICKSLQTSGMVPSNLMPQAAPAVMAPIPPTVSFDDPALTTSLLLSLQNNPILNQTISNFPPTFSITSKTEPEPSIPIQIPQRISSTSTVPFSSEGSAFKPYRNTHVFNSISSESMSSMCTSHEASLEHMSSASLAMFPTSSTAQSDISRLAQVLSLAGDSPASLALVTTSVPSTASTATIPPPATTTSSATSSGKSETITVGKEKIIQTDDPDIQIIETEGGSKPTVSRTRKRPTPSNSADPKINYKDHNKNVVYSTTLQEHQKHLQNRGLALSIHQAMVLRLRYIAEHVIRSLNEFGWAVVDNFLGSDHYKFTAKEIERLYERGLFSPGQLMEAKHKDEFHIKDIRSDHIYWYDGYDGRAKDAATVRLLISMIDSVIQHFKKRIDHDIGGRSRAMLAIYPGNGTRYVKHVDNPVKDGRCITTIYYCNENWDMATDGGTLRLYPETSMTPMDIDPRADRLVFFWSDRRNPHEVMPVFRHRFAITIWYMDKSERDKALAKGKESDAACASKKENDPTSSSLNSLIGSLLRPRKNPSTHDLSKLDLRLFPSTSSDPALVSAADEDRVDISADFQSTSSLAHPESTDSGVSLSTFNVAHNHMERTTSLQSISDHFRSERSHERRSSTSSDQDLDEGLPPPPSTNPEYYI, MGSDKIHHHHHHMSDIVIKAENLGKKYIIGHQAENGRYQALRDVLMHNAQTLWNKTKDLAKGNPLIHGDTLEEVWALKDVSFEIRRGEAVGIIGRNGAGKSTLLKILSRITDPSAGRVTIDGRVASLLEVGTGFHPELSGRENIYLNGTILGMSRKEINQKFDEIVDFAGIEKYLDTPVKRYSSGMYVRLAFAVAAHLEPEILVVDEVLAVGDAEFQKKCLGKMGDVTKEGRTVLFVSHNMVALSALCFRSINLDSGKIIYNGHVDTGVLIYMNGLSNIDNPISYKTRSATGTGEMKIINSFLLRNGKPTLSNVACGDKVDICIEFECCTEKPRFHFALDIYNSKGNRIAYCNSLYTMGVSWVQLPKIFLAKCSFPKLPFFPDEYRVDISIHCNDERADYLQGALSLKVYEGDFYGSGKIPPISGASPIMLLEHKWTIDN, MGSDKIHHHHHHMKLSLVISTSDAAFDALAFKGDLRKGMELAKRVGYQAVEIAVRDPSIVDWNEVKILSEELNLPICAIGTGQAYLADGLSLTHPNDEIRKKAIERVVKHTEVAGMFGALVIIGLVRGRREGRSYEETEELFIESMKRLLELTEHAKFVIEPLNRYETDFINTIDDALRILRKINSNRVGILADTFHMNIEEVNIPESLKRAGEKLYHFHVADSNRWAPGCGHFDFRSVFNTLKEIGYNRYVSVECLPLPGGMEEAAEIAFKTLKELIIKLT

Soluble on expression in E. coli, soluble:
MSLSLYDSAHSLDGKSGWDTPVFSMKDSMDRNPMVTEAWEALCQSQVYFRGKPVGTIAAYDHASEEVLNYDQVFVRDFVPSALAFLMNGEPEIVKNFLLKTLHIQGQDKMIDKFKLGDGAMPASFKVLHNPIKKTDTIIADFGESAIGRVAPVDSGFWWIILLRAYTKSTGDHSLAERPECQKGMRLILSLCLSEGFDTFPTLLCADGCSMVDRRMGIYGYPIEIQALFFMALRSALSMLKHDSEGKEFMEKIVKRLHALSFHMRSYFWLDFQQLNDIYRYKTEEYSHTAVNKFNVIPDSIPDWIFDFMPLRGGYFVGNVSPARMDFRWFALGNCIAILSSLATPEQSMAIMDLIEARWEELVGEMPLKICYPAMESHEWGIVTGCDPKNTRWSYHNGGSWPVLLWLLTAASIKTGRPQIARRAIELAEARLLKDGWPEYYDGKSGRFIGKQARKSQTWSIAGYLVAKMMMDDPTHVGMISMEEEKHMKPPLRRSSSWT, MIKIAPSILSADFSKLGEEIKDVEKGGADYIHVDVMDGHFVPNITIGPLIVEAIRPITSLPLDVHLMIENPDNYIPTFAKAGADIITVHVEACPHLHRTIQLIKSHGIKAGVVLNPHTPVSVIEHVLEDIDMVLLMTVNPGFGGQKFIHSVLPKIKQVAEMVKERNLEVEIEVDGGVNAETARLCVEAGANVLVAGSAVYNQKDRGEAIRVIRG, MNIAELYGKMGKHSWRIMDAIFKNLWDYEYVPLQLISSHARIGEEKARNILKYLSDLRVVQNRQKDYEGSTFTFIGLSLYSLHRLVRSGKVDAIGKLMGEGKESAVFNCYSEKFGECVVKFHKVGHTSFKKVKEKRDYGDLHFSVLAIRSARNEFRALQKLQGLAVPKVYAWEGNAVLMELIDAKELYRVRVENPDEVLDMILEEVAKFYHRGIVHGDLSQYNVLVSEEGIWIIDFPQSVEVGEEGWREILERDVRNIITYFSRTYRTEKDINSAIDRILQE, SLDIKEIVGDYNSFLDTIFELLIKGGFKENELKELPIDHICYRVSTNEFYNEKKEQLNQLGELLVETEIGGRMISTFKLNKPIQYKDKSIPLIELPAPKKNRINYDGLEHIEMVINEPFQSFVDNHPSPIDENLKFNWVLHALNKDINPDVECEFIDPRIKNEIRTISVKFHHQSLEEVVKYEIQLLKENEG, MGIMPRKVLAIKNFKERFDLLPKLKGVIAEKQPDILVVVGNILKNEALEKEYERAHLARREPNRKVIHENEHYIIETLDKFFREIGELGVKTFVVPGKNDAPLKIFLRAAYEAETAYPNIRVLHEGFAGWRGEFEVIGFGGLLTEHEFEEDFVLKYPRWYVEYILKFVNELKPRRLVTIFYTPPIGEFVDRTPEDPKHHGSAVVNTIIKSLNPEVAIVGHVGKGHELVGNTIVVNPGEFEEGRYAFLDLTQHKIKLEQFS, MMKEFNPREIEKKWQKRWEEAGVFKAQEGKPNKFYVLEMFPYPSGRIHMGHVRNYTIGDAIARYLKMRGKNILHPMGWDAFGLPAENAAIKHGIHPAKWTYENIDYMKKQLKILGFSYDWDREIATCDPEYYKWNQWIFLKMLERGIAYRKTAKVNWCPHDQTVLANEQVIEGKCWRCGTPIVQKEVPSWFLRITAYADRLLEDLKKLEGKWPERVIAQQRNWIGRSEGALIRFYVEIEEPEKFLNCVPEELKETLLKEKRIYIDVFTTRPDTVFGATFVVLAPEHPLVPVLACIGERLGNACYSDVENFVEKMKKMSTRERTMEEDKEGVFLGVYATNPANGEKIPVWSANYVLYEYGTGAIMCVPAHDQRDWEFAKKYDLPIKVVVKPEGAWDFEKGAYEGKGTLVNSDGFDGLDSETAKRKITEWLQDRGLGEKKVSYRLRDWNISRQRYWGTPIPVVYCEKCGMVPVPEDQLPVKLPLDVKFTGQGNPLETSEEFVNTTCPKCGGKARRETDTMDTFFDSSWYFLRFCDPKNDREPFSREKVDYWMPVDVYIGGIEHAVLHLLYARFFQKFLKDLGLVRDDEPFEKLITQGMVLKKWVSVKKLLDYLGLSEEDEVEELKKRLEELGARRA, MEPRFAGYAQKVRDSFARQPVMATLGARIDTLLPGRVELCMPYDRALTQQHGFLHAGIVSTVLDSACGYAAFSLMEEEAAVLTVEFKVNFLNPAEGERFAFRAEVVKPGRTLTVATATAYAFRDGEERAIATMTATLMALIGLEHHHHHH, APADKPQVLASFTQTSASSQNAWLAANRNQSAWAAYEFDWSTDLCTQAPDNPFGFPFNTACARHDFGYRNYKAAGSFDANKSRIDSAFYEDMKRVCTGYTGEKNTACNSTAWTYYQAVKIFG, MSLSQLDKTCVIIGASHAGVNCAFALRKEGWQGGIVLYDADPSLPYHRPPLSKAYLTSDAGIEKYLLKSAESYEKDNITLRMGIQVSAIDRTHKILTLNDGNTRSYDKLVIATGARPIIPPTKGIKTAKNLYPLRNAADVQNIRQALESNENKRVVIVGAGYIGLEIAASLKNRGAQVTVLEREDRVLARVTAPEMSAYFQQLHVSQGVEIVTNKNVVSIAPRNGFNTITCSDGTQYDADVIVMGVGIRVNLELAEDAGLNISNGICVNAAGQTNDEDIYAIGDCTLHYNPHYNRHIRLESVQNAVDQAKVTAAAICGKEVAYNAIPWFWSDQYDVKLQIVGLSSGYNELLIRREDDGRKFSSWYFKDDELLAVDAINNAKAYMIATKFIKERRKVDKIKLTDASVALSPLNLSAESHEGHHHHHH
